According to US20250009780A1, “AGENTS ENCODING CLDN6 AND CD3 BINDING ELEMENTS FOR TREATING CLDN6-POSITIVE CANCERS” (BIONTECH SE, priority 2021, published 2025):
Values joined by “and” are separate entries in the source; they are usually repeats but may differ in a detail not shown here. Equal values may be shown once.

Experiments:
simian CD3 = molecular target: T1, simian CD3 (Macaca fascicularis, UniProt Q95LI5); assay: Flow cytometric binding assay, cynomolgus monkey PBMCs; settings: 10 μg/mL
T1 construct: endogenous in cells; host or cells: cynomolgus monkey PBMCs (T cells)
T1 sequence (Q95LI5 22-198): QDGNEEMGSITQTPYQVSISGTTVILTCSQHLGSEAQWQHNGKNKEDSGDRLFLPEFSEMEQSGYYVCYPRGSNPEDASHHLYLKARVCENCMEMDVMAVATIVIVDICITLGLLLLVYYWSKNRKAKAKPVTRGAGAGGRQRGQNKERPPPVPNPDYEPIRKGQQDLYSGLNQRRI
T1 sequence (Q95LI8 22-171 partner): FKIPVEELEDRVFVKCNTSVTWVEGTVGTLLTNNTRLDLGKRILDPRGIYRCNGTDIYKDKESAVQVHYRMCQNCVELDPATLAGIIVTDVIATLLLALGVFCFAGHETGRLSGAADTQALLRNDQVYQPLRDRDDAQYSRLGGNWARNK
T1 sequence (Q95LI7 23-181 partner): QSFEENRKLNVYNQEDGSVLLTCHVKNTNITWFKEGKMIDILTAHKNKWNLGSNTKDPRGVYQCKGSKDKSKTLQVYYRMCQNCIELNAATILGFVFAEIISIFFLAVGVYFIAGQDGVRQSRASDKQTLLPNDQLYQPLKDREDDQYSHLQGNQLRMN
Text: (§1) Cells were first gated for singlets followed by gating for viable lymphocytes (PBMCs) or viable HEK-293T-17 cells. […] Cynomolgus monkey or human PBMCs and HEK-293T-17 transductants stably expressing luciferase (HEK-293T-17_mock), CLDN3, 4, 6 or 9 served as target cells as indicated. The dotted vertical line marks the peak position of unstained populations.

MDA-MB-231 cell line = assay: T-cell-mediated cytotoxicity assay (bioluminescence), MDA-MB-231; type: cell-based, human; settings: CLDN6-negative MDA-MB-231; RiboMab02.1-containing mouse serum
Protocol: Human PBMCs from eight healthy donors were co-cultured with luciferase-expressing tumor cells. CLDN6-positive PA-1 (A) or OV-90 (B) cell lines were used as target cells and the CLDN6-negative MDA-MB-231 (A, B) cell line to control for target specificity. The assays were performed in a 384-well plate format with an effector-to-target-cell ratio of 20:1. Bioluminescence of viable tumor cells was measured as readout. Specific lysis percentages of tumor cell killing are presented. RiboMab02.1-containing mouse serum was serially-diluted (10-fold, 10-point; range: 5.0×10^−7 to 500 ng/mL) and added to the co-cultures, followed by incubation for (A) 24 h with PA-1 cells or (B) 48 h with OV-90 cells. Each line represents tumor cell lysis with an individual donor's PBMC sample.
Bioluminescence-based cytotoxicity assays were conducted using luciferase-expressing cell lines.
The CLDN6-positive human ovarian cancer cell lines PA-1 and OV-90 served to determine target-dependent lysis efficiency while the target-negative human breast cancer cell line MDA-MB-231 was used as negative control to confirm target-specific lysis. Human PBMCs from eight different healthy donors were used as effector cells to reflect the donor-dependent heterogeneity of human T-cell responses. […]

human PBMCs = assay: In vitro human cytokine release (multiplex ELISA on T-cell activation assay supernatants); type: cell-based
Protocol: Cytokine concentration values for each donor (means of technical triplicates) are shown. Filled symbols represent values with target cells while open symbols represent values without target cells.
Cell culture supernatants obtained from the T-cell activation assay were analyzed to investigate the RiboMab02.1-dependent induction of on- and off-target cytokine release. The levels of human pro-inflammatory cytokines IFN-γ, IL-1β, IL-2, IL-6, IL-10 and TNF-α were measured using a customized multiplex ELISA kit.

[1] = Anti-drug antibody (ADA) sandwich immunoassay in mouse serum; type: in vivo, Balb/cJRj mice; settings: 30 μg RNA-LNP IV single dose; compared to RiboMab_712/711
Protocol: Four female Balb/cJRj mice received an IV single dose of 30 μg RNA-LNP per mouse (˜1.4 mg/kg). Serum was sampled pre- and 6, 24, 48, 96, 168, 216, 265 and 528 hours (0.25 to 22 days) post-administration.
Anti-RiboMab02.1 and anti-RiboMab_712/711 drug antibodies (ADAs) in mouse sera were determined using a Gyros xPand™ XPA1025 ELISA device from Gyros Protein Technologies AB. Sandwich immunoassay was processed on a Gyrolab Bioaffy 200 CD.
Anti-RiboMab ADAs were captured using 100 μg/mL biotinylated drug antibody. Serum ADA levels were detected with 25 nM Alexa Fluor 647-conjugated AffiniPure goat anti-mouse IgG, Fc fragment specific antibody. Data were generated using the 200-3W-002-A method and the results were analyzed using Gyrolab Evaluator software.
The positive ADA response was determined according to the floating cut-point. Therefore, the cut-point was calculated using the response of the negative sera (pre-bleeds) and the formula, normalization factor (NF)+mean negative controls (NC).
NF=X*SD of the negative samples; X=1.645; SD=standard deviation of the negative sera (pre-bleeds); NC=3 negative controls (pooled negative sera).

[2] = cynomolgus monkey, in vivo
CLDN9 = molecular target: T2, CLDN9 (Homo sapiens, UniProt O95484); assay: Flow cytometric binding assay, HEK-293T-17 CLDN9 transductants; design: expressed in transfected cells; settings: 10 μg/mL RiboMab02.1 in HEK-293T-17 supernatant
T2 sequence (O95484 1-217): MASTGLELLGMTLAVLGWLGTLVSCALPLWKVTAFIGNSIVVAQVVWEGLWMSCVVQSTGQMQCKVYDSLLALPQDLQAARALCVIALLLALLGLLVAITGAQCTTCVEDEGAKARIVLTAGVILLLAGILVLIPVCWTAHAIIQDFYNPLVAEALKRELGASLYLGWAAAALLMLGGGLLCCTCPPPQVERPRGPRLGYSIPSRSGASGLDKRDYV
Text: as §1

[3] = Single-dose PK study of BNT142 in cynomolgus monkeys
[4] = 0.050 mg/kg, individual animals

RiboMab02.1: Fab-(scFv)2-based bispecific antibody (tribody) against CLDN6 and CD3 encoded by BNT142; SEQ ID NOs: 4 and 6; C53S
binding to simian CD3 (simian CD3): not simian CD3 was recognized
target-independent lysis (MDA-MB-231 cell line): did not induce target-independent (non-specific) lysis
cytokine induction (human PBMCs; absence of CLDN6-positive PA-1 target cells): no cytokine induction was observed
IL-6 induction (human PBMCs; absence of target cells, highest concentration of RiboMab02.1): low induction of IL-6 seen with one donor
release of IFN-γ, IL-1β, IL-2, IL-6, IL-10 and TNF-α (human PBMCs; presence of PA-1 target cells, dose- and donor-dependent): induced the release of all cytokines
immunogenic potential (ADA response) [1]: lower immunogenic potential
anticipated full clearance from the human body (five half-lives) [2]: 135 to 185 h
binding to CLDN9 (CLDN9): not to CLDN3, CLDN4 or CLDN9
Effective t1/2 (mean) ([3]; 0.050 mg/kg, group, n=2): 28.1 h
Cmax (mean) ([3]; 0.050 mg/kg, group, n=3): 27.5 ng/mL
Ctrough (mean) ([3]; 0.050 mg/kg, group, n=3): 3.6 ng/mL
tlast (median) ([3]; 0.050 mg/kg, group, n=3): 72 h
Cmax [3, 4]: 32.8 ng/mL and 19.1 ng/mL and 30.7 ng/mL
Ctrough [3, 4]: 0.6 ng/mL and 5.6 ng/mL
tlast [3, 4]: 168 h and 72 h (2×)
Effective t1/2 ([3]; 0.050 mg/kg, individual animals, from MRT0-inf): 28.1 h
Effective t1/2 (mean) ([3]; […], group, n=1): 26.5 h
Effective t1/2 (mean) ([3]; […], group, n=3): 36.6 h
Effective t1/2 ([3]; […], individual animals, calculated from MRT0-inf): 26.5 h
inter-individual difference in concentration at Cmax ([3]; highest dose group): 2 fold
